Legend:
[1] = biological target: protofibrils prepared from the synthetic peptide Aβ (1-42) (UniProt P05067); experiment: ELISA, antigen coated at 1 µg/ml, anti-human Fc peroxidase detection
[2] = biological target: low-molecular-weight oligomers of Aβ (1-42) (UniProt P05067); experiment: as above
[3] = biological target: protofibrils prepared from the synthetic peptide Aβ (1-42) (UniProt P05067); experiment: ELISA; ratio of the EC50 on low-molecular-weight oligomers to the EC50 on protofibrils

| EC50 [1] | EC50 [2] | LMW/PF [3] | Binder |
| --- | --- | --- | --- |
| 0.0587 µg/mL | 41.4 µg/mL | 705 | humanized antibody LP09026 (antibody, human IgG4 S228P, kappa, V domains shown) VH: EVQLQQSGPEVVKPGVSVKISCKGSGYTFTDYAMHWVKQSPGKSLEWIGVISTKYGKTNYNPSFQGQATMTVDKSSSTAYMELASLKASDSAIYYCARGDEGYSWGQGTSVTVSS VL: EIVMTQTPLSLPVSLGDRASISCRSGQSLVHSNTNTYLHWYLQKPGQSPKLLIYTVSNRFSGVPDRFSGSGSGSDFTLTISRVEAEDLGVYFCSQNTFVPWTFGGGTKLEIKR |
| 0.0798 µg/mL | 14.7 µg/mL | 184 | humanized anti-peptide Aβ antibody VH1VL1 (LP09027) (antibody, human IgG4 S228P, kappa, V domains shown) VH: EVQLQQSGPEVVKPGVSVKISCKGSGYTFTDYAMHWVKQSPGKSLEWIGVISTKYGKTNYNPSFQGQATMTVDKSSSTAYMELASLKASDSAIYYCARGDDGYSWGQGTSVTVSS VL: EIVMTQTPLSLPVSLGDRASISCRSGQSLVHSNGNTYLHWYLQKPGQSPKLLIYTVSNRFSGVPDRFSGSGSGSDFTLTISRVEAEDLGVYFCSQNTFVPWTFGGGTKLEIKR |
| 0.0892 µg/mL | 21.8 µg/mL | 244 | humanized antibody LP09028 (antibody, human IgG4 S228P, kappa, V domains shown) VH: EVQLQQSGPEVVKPGVSVKISCKGSGYTFTDYAMHWVKQSPGKSLEWIGVISTKYGKTNYNPSFQGQATMTVDKSSSTAYMELASLKASDSAIYYCARGDDGYSWGQGTSVTVSS VL: EIVMTQTPLSLPVSLGDRASISCRSGQSLVHSNTNTYLHWYLQKPGQSPKLLIYTVSNRFSGVPDRFSGSGSGSDFTLTISRVEAEDLGVYFCSQNTFVPWTFGGGTKLEIKR |

Reference: patent US20120177639A1
